Biological target: T1, mouse AIM II (LIGHT), membrane-bound (mouse, UniProt Q9QYH9 1-239)
T1 construct: whole, on cells; On human 293 cells transfected with pmAIM II (flow cytometry); also called mAIM II; pmAIM II-transfected 293 cells
T1 sequence (looked up): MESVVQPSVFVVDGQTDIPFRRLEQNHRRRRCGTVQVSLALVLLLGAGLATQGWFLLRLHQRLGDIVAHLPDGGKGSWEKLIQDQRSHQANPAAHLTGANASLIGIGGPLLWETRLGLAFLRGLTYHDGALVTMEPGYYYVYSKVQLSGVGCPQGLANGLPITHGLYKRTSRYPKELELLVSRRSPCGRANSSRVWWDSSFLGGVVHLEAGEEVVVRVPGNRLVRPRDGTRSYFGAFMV
Experiment: flow cytometry, mouse LTβR-Ig (1 µg in 50 µl) on 293 cells transfected with pmAIM II, FITC goat anti-human IgG
Description: Flow cytometric analysis. Human 293 cells (1×10⁶ cells) were transfected with either mouse AIM II pcDNA3 vector (10μg) or mock vector (10 μg) by calcium phosphate methods. After 30 hr of transfection, 293 cells were harvested and stained with 1 μg of mouse LTβR-Ig or the anti-AIM II antibody in 50 μl of PBS supplemented with 5% FBS and 0.02% azide for 30 min at 4° C. The cells were then washed and further incubated with FITC-conjugated anti-human IgG or anti-rabbit IgG for 30 min at 4° C., respectively. Fluorescence was analyzed by a FACSCalibur flow cytometry (Becton Dickinson, Mountain View, Calif.) with Cell Quest software (Becton Dickinson).

B1: mouse LTβR-Ig fusion protein (mouse LTβR extracellular domain fused to the Fc portion of human IgG1) (Fc fusion, UniProt P50284 31-223, looked up)
chain: QLVPPYRIENQTCWDQDKEYYEPMHDVCCSRCPPGEFVFAVCSRSQDTVCKTCPHNSYNEHWNHLSTCQLCRPCDIVLGFEEVAPCTSDRKAECRCQPGMSCVYLDNECVHCEEERLVLCQPGTEAEVTDEIMDTDVNCVPCKPGHFQNTSSPRARCQPHTRCEIQGLVEAAPGTSYSDTICKNPPEPGAMLL
notes: extracellular domain; Made in BHK/VP16 cells, purified on Protein A; not shown: Fc portion of human IgG1 (vector pX58)
Does B1 bind?
Result: binds

— patent US20040009147A1 (Human Genome Sciences, published 2004)
